According to a protein production outcome set (Wang et al. 2014):

Assay: label from the status in PepcDB records

Row | Sequence | protein production
1 | MQVFLQGLLFGIVYIAPIGMQNLFVVSTAIEQPLQRALRVALIVIAFDTSLSLACFYGVGRLLQTTPWLELGVLLIGSLLVFYIGWNLLRKKATAMGTLDADFSYKAAILTAFSVAWLNPQALIDGSVLLAAFRVSIPAALTHFFMLGVILASIIWFIGLTSLISKFKHLMQPRVLLWINRICGGIIILYGVQLLATFITKI | failed
2 | MYKSLFTIIILLYSASSYAKSESPPASTITFIAQIDHVELNKTALSHDMKLVLADRFYFKTSNPCETNSISARPESMDITDKAYADKLKKLETPFLDDRYFFMTINQCDGNGTPMLTDIKVCTTELCGAEYTKKMSTVWLDETLKPTAKRLAIYFIQSPLPYDEEKKQWKVTGWYISSTDNQSSTKQIAFEGYTDTDNLSDSKFISSFKSWFESGKIKNIANYNPKGERDGKYESYYNSNGNVYESLSFSNGLINGEFITYYENGAIESKRHFNNDKIKDGECPHFYEDGKIKQQHSYLNSKLDGPAYEYYPDGKLMQENFYQQSVLIGNDTSYYQSGKISSIHNRNSRGQYDGANERYSEEGKLLSKSVYKDGKQISVQTWYENGQKEEEKHFDEQGQLNGLVKQWYKNGNLAKSQNYKHDILDGNSEEWYENGIPESLYPYKNGKTDGIAKSWNKYGKLTYSIEYKNGVENGAYRNWSKNTGKLTKETLYVNGIRQGVEKEFNDRTGKLLTSTQYVNNKRHGTEETYDQNGIKYITCYQNDQKLSSLDNPTQIKDNATTGDSSAQFALGKYEFICANIDEGIKWLTKSAEQKNTDAIYFLATAYKGNGIPANNEKYLAYLQQAATLGSSNAQAEIGYLYLIGKELPQNLPDAGVWFKKAAAQGNFAAHFYLGRMYQNGDGVERNMEKARFHLSNAAEGGIEPALKALNELEHQTK | failed
3 | MSLDSISLIKTPIEAELEDFKALFDTPLSDSNALLDSVITHIRKRNGKMMRPILVLLVARLYGAVTPATLHAAVSLELLHTASLVHDDVVDESTERRGQLSVNAIFNNKVSVLAGDYLLATSLVHAEQTNNYEIIRLVSSLGQKLAEGELLQLSNVSNHSFSEEVYFDVIRKKTAALFAACAEAAALSVQVGEEEVAFARLLGEYIGICFQIKDDIFDYFDSKKIGKPTGNDMLEGKLTLPALYALNTTKDAWAEQIAFKVKEGTATPDEIVRLIEFTKDNGGIEYACRTIEQYKKKAFDLLAALPDSNICLALRTYLDYVVAREKEGHHHHHH | not failed
4 | MHATDQTFQILLSQLLEKVEDRCPECGSEQYVWQQKNKDGTERCAPTCWSCGYKMLKKHEQQANQQRSQESFMARTQKFFHQGSLIADDALRQCRLTNYQTTELETRQAKERALAAVSAIVEGKPIHVIFSGKPGVGKSHLAISILVEVLERSAYQKYCLFVSYSELLEKLKMSMNESAKSQAKAQAYITRMKKADVLVLDDLGAELGIKNKVSTDFNNDILNRILEARQNKATIFTTNFSGKQLVEAYGTRIISRLMKHANGYVFQYKDTTDKRMRSVKLEHHHHHH | failed
5 | MDMEQRERWATKIGLILAMAGNAIGLGNFVRFPTQVAGNGGGAFMVPYFLALFLLGIPVMWVEWVQGRYGGKYGHGTLGPTFYLMARESLKPRSALWFGLIGGALAFATTTLLNSYYLHLIGWSAAYSWFSITGAYYGKNTAQFFSQYLSNHGLVFLFWGITVVLLGIAVGQGVSKGIERWVKVMMPLLYVFAIILVIYVFALGSPLGQPQWSTIKGFEFIWSPNWGYLKDHLWKVMLAASGQIFFTLSLGMGIIQNYASYLGPKDDVALSGLATVSLNEFAEVVLGGSIAVPLAVAYAPKIVPPDVLAKGSDAALAWISENFGLGFSYTSLPNIFVQMGTAGRFFGALWFLLLWFAGFTSAIAMYNYLTALLEEDLGIKRSVGTWVVFIIYFLLGIPVVYINGYLDQVDAWISFQLALLALFDIIVSVWLFKPDNFWRELHEGALINVPEFYKWITVIIAPIFIALPLFGTFTDLVSKTLGWPAKIAILTMLTIGAIEAYYAIKKKYGEELEKNEVIIKV | failed
6 | MVSANREMAVYCFDTLVSHYNNEETPPPAFEEANHPLFVTWKKIVNGGEPRLRGCIGTLEARRLISGFKDYALTSALRDRRFPPIQAKELPSLQCTVSVLTDYEDAEDYLDWEVGKHGIIIEFTEPETNTKRSATYLPEVPAHEGWTKIEAIDSLVRKAGYNGVITEAVRRRINLTRYQSTLFSMHYSEYLSYVKATRGVVGPVINGINKHAFA | failed
7 | MLEQIFILLIALVVLVWSADKFVFGASSLARNLGISPMIIGLTIVAMGSSAPEMMVAATASMQGNPDTAIGNAIGSNITNIALVLGITALLQPLTVSSQTIKREIPLILAVTALGYWLLFDNHFSFIEGIILISGFAIYIITLLVITLKKTRGKPSDDPLIIEAEQDVAAAVSMKLSLIWLGVGIILLPLSASFLVDSSVYIAKAYGISDLVIGLTIIAIGTSLPELAASIMSIIKKEDDLALGNIIGSNIFNILAVLPIAGLIAPGNIDALAASRDAPYMLGITLLLFILCFSRRLGAFRITRAKGALLLLSFIAYQVLLFSQLS | failed
8 | MFTPGNVLSWATFFPVIGSALIVVLLAAKFFLRLDKKLVDDGSRWIALVTSALSFAAAIAAWRMYDPSATGVQLVQHFTWIRAFNIEFYFGVDGISISMVLLSGLISFIATIASMPWWSGKKDAEMAGMVDDGHEDPHHPKHFSVRMVPGYMAMLLLLQTGMMGTFVALDMFLFYVFWEIMLLPMYFLIGIWGGPRKEYAAIKFFLYTLAGSVLMLLAIIGIYYNSAPAQLADGSWSSGHTFNLIELAKQGAAGQFRNAAPILGFSFAKIVFIGLFIGFAIKIPMFPFHTWLPDAHVEAPTPISVILAGVLLKMGIYGILRFNYGILPDATAWAAGAIAVFGVINIIYAAFVCLAQKDLKKLIAYSSVSHMGFSLLGMAAMTPQGISGAVLNLFTHGIISPMLFLIVGVIYDRAHHREIEKFGGLAQELPEYSAIMGLAFFASLGLPGLAGFISEFTVFSGAFPVFTTYTIISATSVVLTAAYYLWAIHRMFLGKLNPVYKGYPDLNWRERMSLYPLAVICIYLGFYPQAILGVINPALHALIQNIKPL | failed
9 | MEITDPGDFRQRIETSFARQGVVQAINAEISRIEHRLVEIELPFHEKLTQQHGILHAGVIAAGLDTACTYAAYTIIEPEASLLTIEFKVNLMSPGRGERFLFRGEIIKPGNNLIVADGRAYALSDGPAKLIASMTGTMMVVKGLEHHHHHH | not failed
10 | MLLEQQKQLISLIQAAVAQCLPEAQAQVQLERPKVAAHGDIATNVAMQLAKPARRNPRELAQGIVDALMAQPQARELIQDAEIAGPGFINFRLTPAARQAVVQAVASQADA | failed
11 | SALTAALSVCPLPSSSFFFAGFLPHKKGRKSRLEFLASIDSTIVLYESPHRIGRLMEEVKEHFPDAQVFAAREITKMHEEYVTGTPDELANHFTGQKQRGEFVVVVHPPDKH | failed
12 | MSEVHTTIIDLDAGAVFSGTPSGRIIKGFDKPCAHTPNIDPDYVFHECSRDIVVWLMDSSDPLYVFGPTGSGKTSAIKQLAARLNYPVFDVTGHGRLEFPDLVGHLSVRDGSMEFQYGPLALAMRHGGILLLNEIDLLEPATATGFNGILDGEPLCIPENGGEIITPHPMFRFAATANTNGGSDDTGLYQGTLRQNLAFLDRFWLCEMPYPAPEAEKALLERRAPMLPDDIRTRMVDYANEVRRLFMGESGTTYGHSIEVTFSTRTLLRWADLTVRFQPLARQGIQPLTYALDRALGFKASKDTRTTLHELAQRLFPQHAATGE | failed
13 | MATAASNHYSLLTSSASIVHAEPPGGMQQGAGGYREAQSLVQGDYGALQSNGHPLSHAHQWITALSHGGGGGGGGGGGGGGGGGGGGGDGSPWSTSPLGQPDIKPSVVVQQGGRGDELHGPGALQQQHQQQQQQQQQQQQQQQQQQQQQRPPHLVHHAANHHPGPGAWRSAAAAAHLPPSMGASNGGLLYSQPSFTVNGMLGAGGQSAGLHHHGLRDAHDEPHHADHHPHPHSHPHQQPPPPPPPQGPPGHPGAHHDPHSDEDTPTSDDLEQFAKQFKQRRIKLGFTQADVGLALGTLYGNVFSQTTICRFEALQLSFKNMCKLKPLLNKWLEEADSSSGSPTSIDKIAAQGRKRKKRTSIEVSVKGALESHFLKCPKPSAQEITSLADSLQLEKEVVRVWFCNRRQKEKRMTPPGGTLPGAEDVYGGSRDTPPHHGVQTPVQ | failed
14 | SNPNDLPDFPEHEYAATQQVGEGVINGDLYLTSASGAIQKGTNTKVALEPATSYMKAYYAKFGNLDAAKRDPDVQPPVLDPRRATYVREATTDQNGRFDFDHIPNGTYYISSELTWSAQSDGKTITEGGTVTKLVTVSGSQPQKVLLTR | not failed
15 | MRRSDLHGTSIEIERKNVGERRYITGFDGLRVMALLGVIFYHLMPFTVPGGYLGVPIFFAVSGYLITDIFIQEWDRTGKIKLGSFYIRRLRRLYPTLVMVLVTSTAYMTLFAQNLLSHIRNIIWTNLVFVYNWWLVNNGQSYFDRYNGESPFTHLWYLSVLAQYYFIWPLILIVLLKIFGERRVQASGILFSLSIISSMLMTILYHPDTVNRVYYGSDTRVAPFLIGAALAFIWPSTRLKKALNARTNLIANILGGILILVMGITFFTMPGTTATPYYGGIFIFSILAVLMIAIIAHPSFMWNRLLTNPVFKWLGSRSYGIYMYQLPVMIFYEQKVTNIAAHPVLNTLAPLVIILVISELSYRYIEIPLAKFDYRQTFALLKKIFDLKSNLQWRRYLAIPAVLVVLIALFGAVTSPEKVVQKTDGLQTKLAKNSKEADKKNKEALEKQKETSAAKTKQKKAKLTKQEKEIAKKYQLTDQEMKFAAVTPLTGVGDSVLEDTGADLQEIFPTAYMSSKVGRQVDEAPGIIAELKRQKTLSDNVLINLGANGPISDKDVKAVEDAVGSKRHIFWVNVHVPTKTWEGSVNKTLDKATKQYKNLTVIDWFTPSKNQPGWFYGDYVHPNPDGSKQYATIVAKKIIKTLNK | failed
16 | MEIKNIKEFEKASKKLQKDTLKIALALLFLIGAALLALIFGQANSKGLLLIFAAVIGGYMAMNIGANDVSNNVGPAVGSKAISMGGAILIAAICEMLGAIIAGGEVVSTIKGRIVSPEFINDAHIFINVMLASLLSGALWLHVATLIGAPVSTSHSVVGGIMGAGMAAAGMVAVNWHFLSGIVASWVISPLMGALIAMFFLMLIKKTIAYKEDKKSAALKVVPYLVALMSLTFSWYLIVKVLKRLYALNFEIQLACGCILALLIFILFKRFVLKKAPQLENSHESINELFNVPLIFAAALLSFAHGANDVANAIGPLAAISQTLEDANSPIGNTLSSVPLWIMVVGAAGIALGLSLYGPKLIKTVGSEITELDKMQAFCIALSAVITVLLASQLGLPVSSTHIVVGAVFGVGFLRERLREQSRRRFARIRDNIVAAHFGEDLEEIEGFLERFDKANLKEKSLMLESLKKSKNTAIALELKKKEKKSLKKVYKEEVIKRSILKKIVTAWLVTVPVSALLGALLFVALGFIEKYF | failed
17 | MDRPLSFAAVSFLATLVTLLVLMQTALVAGGPLRALVLASVGAIGTYFAIRSGVLKS | failed
18 | MLLSGWGKFVRWLLVLLSILVIIIGINLILDGVYGFGTFSTTQMYQVAKDPLIGVLIGILATALVQSSTTTTTLTVTAVGTGIVSVPVAIPIILGANIGTTITAMLVAFSYVGERREFKRAFTVAAMHVWFNVLVILVLFVVELLFHPFRTISGAIATEITLTTGGSLPTSGVMTKIFDPPTQLLGMNGLIGSIGNPSISAIVCLVVGTILILISVRAMSSQIRTITAATVTSIMDKVINPENSPKATILSNFWSFILGVLFTLMVTASSVTVASMQPVAASGVVKQKPLLGVILGANVGTTVTAMFATFAIVSDQGEFAIQAALIHLIVNFTGALLVLCIPQLANVIIHLAEKTANLTARSYSITLATIVTAYVLVPSAVLMIYFFI | failed
19 | MPHVRPSNAWRFLRTLWLGAWLAGWALLAQAQQLAPVPEFGARVVDQSGVLDAAQRQRLEAQLAALEQRKGAQVAVLIVPSTAPETIEQYATRAFEKWKIGRDKVDDGVLLLMASDDRALRIEVGYGLEGAIPDSAAGRIINEYIVPRLRAGDWPGAVQAGVTALERRIEGEELPPPAASGRDEGSRLAGIRGWLGENGIAALVVLLILPGPIAAALAGVGVAIYMQSISAGLAMALLVLGIKVIIKALPSGGGGGGGGGGGSGGGGFGGWRGGSRGGSGSGGFGGFRGGGGGRSGGGGASGRWLEHHHHHH | failed
